Experimental findings from patent US20190233522A1, “NEW DOSAGE REGIMENS FOR ANTIBODY DRUG CONJUGATES BASED ON ANTI-AXL ANTIBODIES” (GENMAB A/S, priority 2016, published 2019) are described below.

The target of one series is AXL (Homo sapiens, UniProt P30530). The experiment in a line: Competition with Gas6 for binding to AXL.
A further series has as its system MDA-MB231 cells. Description: Cytotoxicity assay (CellTiter-Glo) in MDA-MB231 cells. The class given is cell-based. The following applies: MDA-MB231 (n = 2), 5 days incubation. As to the method: (§1) LCLC-103H cells (human large cell lung cancer) and A431 cells (DMSZ, Braunschweig, Germany) were cultured in RPMI 1640 with L-Glutamine (Cambrex; cat.no. BE12-115F) supplemented with 10% (vol/vol) heat inactivated Cosmic Calf Serum (Perbio; cat.no. SH30087.03), 2 mM L-glutamine (Cambrex; cat.no. US17-905C), 50 IU/mL penicillin, and 50 µg/mL streptomycin (Cambrex; cat.no. DE17-603E). MDA-MB231 cells were cultured in DMEM with high glucose and HEPES (Lonza #BE12-709F), Donor Bovine Serum with Iron (Life Technologies #10371-029), 2 mM L-glutamine (Lonza #BE17 -605E), 1 mM Sodium Pyruvate (Lonza #BE13-115E), and MEM Non-Essential Amino Acids Solution (Life Technologies #11140). The cell lines were maintained at 37° C. in a 5% (vol/vol) CO2 humidified incubator. LCLC-103H, A431 and MDA-MB231 cells were cultured to near confluency, after which cells were trypsinized, resuspended in culture medium and passed through a cell strainer (BD Falcon, cat.no. 352340) to obtain a single cell suspension. […]
(§2) Subsequently, 180 μL per well was transferred to white 96-well Optiplate™ plates (PerkinElmer, Waltham, Mass.; cat.no. 6005299), which were incubated for 30 min at room temperature. Finally, luminescence was measured on an EnVision multiplate reader (Envision, Perkin Elmer).
Background: Cellular ATP, detected with luciferase, serves as a proxy for viable cell number.

The next series relates to LCLC-103H tumors. The experiment in a line: LCLC-103H xenograft model (low Gas6, Example 5). Format: in vivo. The note with it: 3 mg/kg i.p., SCID mice. As to the method:
(§3) Tumor induction was performed by subcutaneous injection of 5×10^6 A431 or LCLC-103H tumor cells (both obtained from Leibniz-Institut—Deutsche Sammlung von Mikroorganismen and Zellkulturen GmbH (DSMZ)) in 200 μL PBS in the right flank of female SCID mice. Treatment was started 14-21 days after tumor cell inoculation, when the average tumor size was >100-200 mm^3 and distinct tumor growth was observed. Mice received a single injection or a total of 4 biweekly intraperitoneal injections with IgG1-AXL-vcMMAE ADCs or control antibody (unconjugated IgG1-b12), as indicated. Tumor volume was determined at least two times per week. Tumor volumes (mm^3) were calculated from caliper (PLEXX) measurements as: 0.52×(length)×(width)^2.

Series [1] concerns LCLC-103H xenograft tumors. The experiment in a line: Therapeutic treatment of SC LCLC-103H tumor xenografts (Example 3). Format: in vivo, SCID mice. As to the method:
The in vivo efficacy of MMAE-conjugated anti-AXL antibodies was determined in established subcutaneous (SC) LCLC-103H xenograft tumors in SCID mice. 5×10^6 LCLC-103H (large cell lung carcinoma) tumor cells (obtained from Leibniz-Institut DSMZ-Deutsche Sammlung von Mikroorganismen and Zellkulturen GmbH (DSMZ)) in 200 μL PBS were injected subcutaneously in the right flank of female SCID mice. Starting 14-21 days after tumor cell inoculation, when the average tumor size was >100-200 mm^3 and distinct tumor growth was observed, a single injection with 1 mg/kg (20 μg/mouse) IgG1-AXL-vcMMAE antibodies or control (unconjugated IgG1-b12) was given intraperitoneally (100 μL/mouse). Tumor volume was determined at least two times per week. Tumor volumes (mm^3) were calculated from caliper (PLEXX) measurements as: 0.52×(length)×(width)^2.

Another series has as its system PAXF1657 tumors. Description: PAXF1657 pancreas cancer PDX model. The class given is in vivo, NMRI nu/nu mice. As to the method:
Human pancreas tumor tissue was subcutaneously implanted in the left flank of 5-7 weeks old female NMRI nu/nu mice. […] At day of randomization (day 0), the 3 ADCs were dosed intravenously (i.v.) at either 4 mg/kg or 2 mg/kg, and the control group received a single dose of IgG1-b12 (4 mg/kg). Tumor volumes (mm^3) were monitored twice weekly and were calculated from caliper (PLEXX) measurements as: 0.52×(length)×(width)^2.

In another series the test system is LCLC-103H cells. The experiment in a line: Cytotoxicity assay (CellTiter-Glo) in LCLC-103H cells. The note with it: 5 days incubation. The class given is cell-based, human. As to the method: as §1, §2
Another series deals with A431 cells. Description: Cytotoxicity assay (CellTiter-Glo) in A431 cells. Format: cell-based. The following applies: A431 (n = 3), 5 days incubation. As to the method: as §1, §2
Another series relates to A431 tumors. Description: A431 xenograft model (high Gas6). The following applies: 3 mg/kg i.p., SCID mice. Format: in vivo. As to the method:
as §3

Series [2] in a line: Pre-clinical PK studies in cynomolgus monkey. The class given is in vivo. The source says: Data from 5 in-vivo pre-clinical studies, shown in the Table below, were provided, containing measurements of the plasma ADC level, plasma IgG level, and plasma MMAE level (only measured in study 5).
All studies appeared to show a significant drop in plasma concentrations of ADC/IgG after the 2nd dose when compared to the first dose, which corresponded with an ADA response. As this is a fully human antibody, ADA response are only very rarely expected to occur in humans. Therefore, only data after the first dose were included in the data preparation and subsequently modelled.

B1: IgG1-AXL-148-vcMMAE: anti-AXL antibody 148 (VH SEQ ID No 5, VL SEQ ID No 6), Ig2 binder, conjugated to vcMMAE (conjugate)
VH: EVQLLESGGGLVQPGGSLRLSCAASGFTFSSYAMTWVRQAPGKGLEWVSAISISGGSTFYADSVKGRFTISRDNSKNTLYLQMNSLRAEDTAVYYCRGYSGYVYDAFDFWGQGTMVTVSS
VL: DIQMTQSPSSLSASVGDRVTITCRASQGISNWLAWYQQKPEKAPKSLIYAASSLQSGVPSRFSGSGSGTDFTLTISSLQPEDFATYYCQQYNSYPLTFGGGTKVEIK
modifications: vc-MMAE conjugate; homo sapiens
What is called EC50 is the midpoint of the concentration-response curve. As to B1, the “competition with Gas6 for binding to AXL” value in the series with AXL was “lack of competition”. Also, the “EC50 Mean” value in the series with MDA-MB231 cells is 0.012 µg/mL; in the series on A431 cells, 0.070 µg/mL. Besides, in the series with LCLC-103H tumors, the “anti-tumor activity in the LCLC-103H xenograft model” value is “induced tumor regression”. For the same molecule, the complete tumor reduction result in series [1] (1 mg/kg single i.p.) is reported as “in some mice within these groups to complete tumor reduction”. The “tumor volume versus control IgG1-b12” value in [1] (day 30, One Way ANOVA (Dunnett's), 1 mg/kg single i.p.) was “highly significant difference”. Also, the “anti-tumor activity in established SC LCLC-103H tumors” value in series [1] (single i.p. injection 1 mg/kg, SCID mice) was “induced tumor regression”. The “growth of PAXF1657 tumors compared to the control group” value in the series on PAXF1657 tumors (2 mg/kg i.v., day 0) is reported as “significantly reduced the growth”. The “anti-tumor activity on PAXF1657 tumors” value with PAXF1657 tumors (4 mg/kg i.v., day 0) is given as “induced tumor regression”. Further, the “average tumor size versus isotype control IgG1-b12” value in the series on PAXF1657 tumors (day 14, 2 mg/kg or 4 mg/kg, p<0.001 Tukey's multiple comparison test) is “significantly smaller”. Also, the “anti-tumor activity in the PAXF1657 model” value in the series on PAXF1657 tumors (dose not given) is “induced dose-dependent antitumor activity”. This molecule also returned an EC50 with LCLC-103H cells of 0.012 µg/mL. Also, the “anti-tumor activity on A431 tumors” value with A431 tumors is “induced growth inhibition”. In series [2], the “pharmacokinetic properties, unconjugated antibody (study 3) versus ADC (study 2)” value is given as “similar”.
